# Target: Jak2 (UniProt O60674)
# Test: phosphorylation enrichment, bacterial display (enrichment ratio); higher = better substrate or ligand; peptides without Tyr show the background
# 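Throughout, for SH2 binding enrichment of the phosphorylated peptide, bacterial display: peptide library displayed on the E. coli surface as eCPX fusions, selected cells deep-sequenced, score is each peptide's frequency after selection divided by its frequency in the input.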
# 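Throughout, for phosphorylation enrichment, bacterial display: 11-residue human phosphosite peptides and single-mutation variants displayed on the E. coli surface, counted by deep sequencing, each peptide's frequency after selection divided by its frequency in the unselected input library; frequency after pTyr selection over input frequency; kinase dosed for 20-30% of maximal phosphorylation in three min.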
# Chain of Jak2 (O60674 whole entry, looked up): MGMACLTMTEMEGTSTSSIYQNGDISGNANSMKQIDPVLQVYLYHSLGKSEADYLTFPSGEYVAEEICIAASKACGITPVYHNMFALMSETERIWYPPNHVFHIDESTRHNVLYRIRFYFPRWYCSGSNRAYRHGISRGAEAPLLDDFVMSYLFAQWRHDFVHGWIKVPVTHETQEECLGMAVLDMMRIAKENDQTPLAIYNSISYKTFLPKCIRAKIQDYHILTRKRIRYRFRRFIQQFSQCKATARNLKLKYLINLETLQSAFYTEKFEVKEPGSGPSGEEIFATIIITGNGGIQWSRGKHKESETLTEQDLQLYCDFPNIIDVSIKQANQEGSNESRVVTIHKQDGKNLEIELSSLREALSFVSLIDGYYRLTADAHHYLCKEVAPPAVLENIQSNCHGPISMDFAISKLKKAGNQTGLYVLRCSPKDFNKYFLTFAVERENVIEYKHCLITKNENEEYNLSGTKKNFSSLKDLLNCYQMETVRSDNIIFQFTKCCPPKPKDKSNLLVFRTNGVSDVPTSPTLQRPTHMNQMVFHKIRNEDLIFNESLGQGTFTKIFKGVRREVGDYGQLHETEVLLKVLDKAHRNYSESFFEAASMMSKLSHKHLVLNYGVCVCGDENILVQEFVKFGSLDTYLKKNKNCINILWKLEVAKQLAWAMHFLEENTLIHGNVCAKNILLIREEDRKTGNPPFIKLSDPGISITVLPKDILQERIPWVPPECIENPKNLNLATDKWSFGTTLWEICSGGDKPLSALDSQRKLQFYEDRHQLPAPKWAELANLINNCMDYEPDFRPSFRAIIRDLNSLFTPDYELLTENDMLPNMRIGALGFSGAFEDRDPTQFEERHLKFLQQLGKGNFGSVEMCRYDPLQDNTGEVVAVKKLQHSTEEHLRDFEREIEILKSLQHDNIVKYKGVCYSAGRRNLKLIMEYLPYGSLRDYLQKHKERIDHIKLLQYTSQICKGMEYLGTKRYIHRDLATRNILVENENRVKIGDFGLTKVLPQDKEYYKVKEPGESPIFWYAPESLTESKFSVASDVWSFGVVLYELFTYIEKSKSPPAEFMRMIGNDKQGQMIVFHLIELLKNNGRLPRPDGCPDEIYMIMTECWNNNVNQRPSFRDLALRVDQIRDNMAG
row,Sequence,phosphorylation enrichment
1,RAEAPYLLVSN [LRIG1_Y1054_Q1053P],0.748
2,SEDSEYYRAFE [CASQ2_Y178_K180R],1.29
3,CEHRGCLFLAI [TEK_Y897_Y897C_YF],0.797
4,NPQKSYFIRLY [WAS_Y83],1.07
5,RAHARYCADAC [ACOT4_Y52_R57C],0.61
6,KRPAVYIDEEA [EPM2A_Y304],0.901
7,KRLAVYIDEEA [EPM2A_Y304_P301L],1.23
8,VVDVTYDDVPI [FLNB_Y1308_E1305D],0.951
9,ESKKHYGFSLF [ANXA3_Y295_F291S_YF],0.93
10,DLLMQHPKAQG [FAM83C_Y600_Y600H],0.801
11,WHHTFYNELCV [ACTC1_Y93_R97C],1.03
12,TVQVAYYTVMM [SPATA17_Y83_M86V],2.57
13,PKSWNYELPAT [PROM1_Y34_A31S],0.658
14,LEKISYVFMKR [SSX7_Y48_YF],1.72
15,CLAKMYFSAVE [CP_Y539_D544E_YF],1.19
16,GEAEQYVGGGG [FAT4_Y4980],0.746

row,Sequence,phosphorylation enrichment
1,EGTATYAAAIL [JUP_Y644_V648I],0.795
2,SGVSYYINLCQ [IGF2R_Y2025_N2020S],1.32
3,GLDGSYLLTDS [SH2D1A_Y29_R32T],0.697
4,NYRPGYNNFYN [USH2A_Y467],0.651
5,VDTLWYKFLKR [EPM2A_Y86_F84L],0.892
6,GGEEFYVHFVG [KAT8_Y90_R86G_YF],1.24
7,RKVAQYMLENE [SLC16A6_Y224_E221V],1.03
8,FRDMDYRSFPH [RBM10_Y41_R46H_YF],0.667
9,SKHRLYSDLQT [PTCHD1_Y84],0.406
10,NCLRQYVAGRF [CRB1_Y711_E710Q],0.62
11,KSEMSYIDGEK [SORBS1_Y485],0.736
12,GFAGKYIAMVM [CYP19A1_Y441_C437Y_YF],0.594
13,YSIDHYLGKEM [G6PD_Y202_R198S],0.828
14,PDDPDYSLVDD [PSTPIP2_Y323_N322D],2.02
15,LSDGPYSNPYE [EPOR_Y485],3.98

# Target: Grb2 SH2 (UniProt P62993)
# Test: SH2 binding enrichment of the phosphorylated peptide, bacterial display (enrichment ratio); higher = better substrate or ligand; peptides without Tyr show the background
# Chain of Grb2 SH2 (P62993 whole entry, looked up): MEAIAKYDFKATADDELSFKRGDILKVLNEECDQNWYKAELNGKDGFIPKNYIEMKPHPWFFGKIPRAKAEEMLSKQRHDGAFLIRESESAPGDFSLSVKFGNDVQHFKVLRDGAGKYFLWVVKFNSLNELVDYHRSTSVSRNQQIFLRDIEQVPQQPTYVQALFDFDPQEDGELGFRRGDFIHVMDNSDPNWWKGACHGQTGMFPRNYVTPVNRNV
row,Sequence,SH2 binding enrichment
1,AGQEDDDRLRP [RAC1_Y64_Y64D],0.867
2,EPNSRYTCKLE [USH2A_Y3745_Y3747C],1.06
3,RAEAPYLLVSN [LRIG1_Y1054_Q1053P],0.847
4,SEDSEYYRAFE [CASQ2_Y178_K180R],0.901
5,CEHRGCLFLAI [TEK_Y897_Y897C_YF],0.934
6,NPQKSYFIRLY [WAS_Y83],1.06
7,RAHARYCADAC [ACOT4_Y52_R57C],0.915
8,KRPAVYIDEEA [EPM2A_Y304],0.949
9,KRLAVYIDEEA [EPM2A_Y304_P301L],0.85
10,VVDVTYDDVPI [FLNB_Y1308_E1305D],0.822
11,ESKKHYGFSLF [ANXA3_Y295_F291S_YF],1.03
12,DLLMQHPKAQG [FAM83C_Y600_Y600H],0.996
13,WHHTFYNELCV [ACTC1_Y93_R97C],0.86
14,TVQVAYYTVMM [SPATA17_Y83_M86V],1.06
15,PKSWNYELPAT [PROM1_Y34_A31S],0.618
16,LEKISYVFMKR [SSX7_Y48_YF],0.85
17,CLAKMYFSAVE [CP_Y539_D544E_YF],1.09

row,Sequence,SH2 binding enrichment
1,GEAEQYVGGGG [FAT4_Y4980],1.16
2,EGTATYAAAIL [JUP_Y644_V648I],0.82
3,SGVSYYINLCQ [IGF2R_Y2025_N2020S],0.743
4,GLDGSYLLTDS [SH2D1A_Y29_R32T],0.683
5,NYRPGYNNFYN [USH2A_Y467],0.875
6,VDTLWYKFLKR [EPM2A_Y86_F84L],0.943
7,GGEEFYVHFVG [KAT8_Y90_R86G_YF],0.626
8,RKVAQYMLENE [SLC16A6_Y224_E221V],0.697
9,FRDMDYRSFPH [RBM10_Y41_R46H_YF],0.911
10,SKHRLYSDLQT [PTCHD1_Y84],1.3
11,NCLRQYVAGRF [CRB1_Y711_E710Q],0.709
12,KSEMSYIDGEK [SORBS1_Y485],0.697
13,GFAGKYIAMVM [CYP19A1_Y441_C437Y_YF],0.821
14,YSIDHYLGKEM [G6PD_Y202_R198S],0.72
15,PDDPDYSLVDD [PSTPIP2_Y323_N322D],0.642
16,LSDGPYSNPYE [EPOR_Y485],1.39

# Target: c-Src SH2
# Test: as above
row,Sequence,SH2 binding enrichment
1,AGQEDDDRLRP [RAC1_Y64_Y64D],0.528
2,EPNSRYTCKLE [USH2A_Y3745_Y3747C],0.576
3,RAEAPYLLVSN [LRIG1_Y1054_Q1053P],0.695
4,SEDSEYYRAFE [CASQ2_Y178_K180R],0.47
5,CEHRGCLFLAI [TEK_Y897_Y897C_YF],0.751
6,NPQKSYFIRLY [WAS_Y83],0.517
7,RAHARYCADAC [ACOT4_Y52_R57C],0.872
8,KRPAVYIDEEA [EPM2A_Y304],0.711
9,KRLAVYIDEEA [EPM2A_Y304_P301L],0.507
10,VVDVTYDDVPI [FLNB_Y1308_E1305D],0.518
11,ESKKHYGFSLF [ANXA3_Y295_F291S_YF],0.644
12,DLLMQHPKAQG [FAM83C_Y600_Y600H],0.466
13,WHHTFYNELCV [ACTC1_Y93_R97C],1.2
14,TVQVAYYTVMM [SPATA17_Y83_M86V],0.925
15,PKSWNYELPAT [PROM1_Y34_A31S],0.772
16,LEKISYVFMKR [SSX7_Y48_YF],0.432
17,CLAKMYFSAVE [CP_Y539_D544E_YF],0.621

row,Sequence,SH2 binding enrichment
1,GEAEQYVGGGG [FAT4_Y4980],0.464
2,EGTATYAAAIL [JUP_Y644_V648I],0.412
3,SGVSYYINLCQ [IGF2R_Y2025_N2020S],0.531
4,GLDGSYLLTDS [SH2D1A_Y29_R32T],0.505
5,NYRPGYNNFYN [USH2A_Y467],0.614
6,VDTLWYKFLKR [EPM2A_Y86_F84L],0.426
7,GGEEFYVHFVG [KAT8_Y90_R86G_YF],0.308
8,RKVAQYMLENE [SLC16A6_Y224_E221V],0.697
9,FRDMDYRSFPH [RBM10_Y41_R46H_YF],0.565
10,SKHRLYSDLQT [PTCHD1_Y84],1.57
11,NCLRQYVAGRF [CRB1_Y711_E710Q],0.299
12,KSEMSYIDGEK [SORBS1_Y485],0.467
13,GFAGKYIAMVM [CYP19A1_Y441_C437Y_YF],0.755
14,YSIDHYLGKEM [G6PD_Y202_R198S],0.577
15,PDDPDYSLVDD [PSTPIP2_Y323_N322D],0.665
16,LSDGPYSNPYE [EPOR_Y485],5.44

# Target: SHP2-C SH2
# Test: as above
row,Sequence,SH2 binding enrichment
1,AGQEDDDRLRP [RAC1_Y64_Y64D],1.28
2,EPNSRYTCKLE [USH2A_Y3745_Y3747C],0.826
3,RAEAPYLLVSN [LRIG1_Y1054_Q1053P],0.645
4,SEDSEYYRAFE [CASQ2_Y178_K180R],0.67
5,CEHRGCLFLAI [TEK_Y897_Y897C_YF],0.974
6,NPQKSYFIRLY [WAS_Y83],0.937
7,RAHARYCADAC [ACOT4_Y52_R57C],0.898
8,KRPAVYIDEEA [EPM2A_Y304],0.709
9,KRLAVYIDEEA [EPM2A_Y304_P301L],0.486
10,VVDVTYDDVPI [FLNB_Y1308_E1305D],0.866
11,ESKKHYGFSLF [ANXA3_Y295_F291S_YF],0.717
12,DLLMQHPKAQG [FAM83C_Y600_Y600H],0.836
13,WHHTFYNELCV [ACTC1_Y93_R97C],0.767
14,TVQVAYYTVMM [SPATA17_Y83_M86V],0.812
15,PKSWNYELPAT [PROM1_Y34_A31S],1.02
16,LEKISYVFMKR [SSX7_Y48_YF],0.831
17,CLAKMYFSAVE [CP_Y539_D544E_YF],0.834

row,Sequence,SH2 binding enrichment
1,GEAEQYVGGGG [FAT4_Y4980],0.584
2,EGTATYAAAIL [JUP_Y644_V648I],0.429
3,SGVSYYINLCQ [IGF2R_Y2025_N2020S],0.642
4,GLDGSYLLTDS [SH2D1A_Y29_R32T],0.648
5,NYRPGYNNFYN [USH2A_Y467],0.84
6,VDTLWYKFLKR [EPM2A_Y86_F84L],0.573
7,GGEEFYVHFVG [KAT8_Y90_R86G_YF],0.538
8,RKVAQYMLENE [SLC16A6_Y224_E221V],0.617
9,FRDMDYRSFPH [RBM10_Y41_R46H_YF],0.787
10,SKHRLYSDLQT [PTCHD1_Y84],1.12
11,NCLRQYVAGRF [CRB1_Y711_E710Q],0.571
12,KSEMSYIDGEK [SORBS1_Y485],0.68
13,GFAGKYIAMVM [CYP19A1_Y441_C437Y_YF],0.81
14,YSIDHYLGKEM [G6PD_Y202_R198S],0.781
15,PDDPDYSLVDD [PSTPIP2_Y323_N322D],0.576
16,LSDGPYSNPYE [EPOR_Y485],0.703
